{"source": "patent US20070244048A1", "about": "(published 2007)", "key": {"human NMUR1 [1]": {"target": "T1, human NMUR1 (human, UniProt Q9HB89 1-426)", "T1 sequence (looked up)": "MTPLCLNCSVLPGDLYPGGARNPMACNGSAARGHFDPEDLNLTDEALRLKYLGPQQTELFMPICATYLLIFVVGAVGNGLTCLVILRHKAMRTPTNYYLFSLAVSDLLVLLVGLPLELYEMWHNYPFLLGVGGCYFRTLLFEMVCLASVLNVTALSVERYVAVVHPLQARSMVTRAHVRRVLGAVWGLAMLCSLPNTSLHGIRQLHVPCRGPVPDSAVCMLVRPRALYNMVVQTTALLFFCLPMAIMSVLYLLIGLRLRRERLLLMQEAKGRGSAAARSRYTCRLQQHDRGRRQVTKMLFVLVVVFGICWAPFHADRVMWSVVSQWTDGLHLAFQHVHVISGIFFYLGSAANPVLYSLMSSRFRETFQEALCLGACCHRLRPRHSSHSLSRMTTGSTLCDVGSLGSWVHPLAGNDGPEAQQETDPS", "assay": "125I-hNMU-25 displacement, cell membranes"}, "mouse NMUR1-ATG [2]": {"target": "T2, mouse NMUR1-ATG (mouse, UniProt O55040 1-428)", "T2 sequence (looked up)": "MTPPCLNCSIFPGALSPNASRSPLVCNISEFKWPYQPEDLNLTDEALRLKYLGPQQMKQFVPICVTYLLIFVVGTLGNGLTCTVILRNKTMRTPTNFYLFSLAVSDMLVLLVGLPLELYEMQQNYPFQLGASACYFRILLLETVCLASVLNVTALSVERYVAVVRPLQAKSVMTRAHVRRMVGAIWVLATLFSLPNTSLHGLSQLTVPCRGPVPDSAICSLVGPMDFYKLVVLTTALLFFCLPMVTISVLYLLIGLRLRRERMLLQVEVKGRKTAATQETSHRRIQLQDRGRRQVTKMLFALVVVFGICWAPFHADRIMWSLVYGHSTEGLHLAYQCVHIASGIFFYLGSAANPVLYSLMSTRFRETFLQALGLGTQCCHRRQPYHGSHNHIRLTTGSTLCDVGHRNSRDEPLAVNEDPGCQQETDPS", "assay": "125I-hNMU-25 displacement, cell membranes"}, "mouse NMUR2 [3]": {"target": "T3, mouse NMUR2 (mouse, UniProt Q8BZ39 1-395)", "T3 sequence (Q8BZ39 whole entry)": "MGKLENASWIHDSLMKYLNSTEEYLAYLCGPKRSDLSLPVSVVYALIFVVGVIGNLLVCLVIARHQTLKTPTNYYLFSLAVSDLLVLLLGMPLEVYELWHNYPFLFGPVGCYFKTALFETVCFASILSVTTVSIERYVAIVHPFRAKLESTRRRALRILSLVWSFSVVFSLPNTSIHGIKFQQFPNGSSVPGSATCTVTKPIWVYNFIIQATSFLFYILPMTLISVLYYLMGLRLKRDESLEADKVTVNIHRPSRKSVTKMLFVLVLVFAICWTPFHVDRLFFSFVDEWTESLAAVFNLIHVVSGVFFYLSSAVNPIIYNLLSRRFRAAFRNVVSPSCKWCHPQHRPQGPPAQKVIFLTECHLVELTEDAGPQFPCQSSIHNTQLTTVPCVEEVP", "assay": "125I-hNMU-25 displacement, cell membranes"}, "rat NMUR2 [4]": {"target": "T4, rat NMUR2 (rat, UniProt Q9ESQ4 1-395)", "T4 sequence (Q9ESQ4 whole entry)": "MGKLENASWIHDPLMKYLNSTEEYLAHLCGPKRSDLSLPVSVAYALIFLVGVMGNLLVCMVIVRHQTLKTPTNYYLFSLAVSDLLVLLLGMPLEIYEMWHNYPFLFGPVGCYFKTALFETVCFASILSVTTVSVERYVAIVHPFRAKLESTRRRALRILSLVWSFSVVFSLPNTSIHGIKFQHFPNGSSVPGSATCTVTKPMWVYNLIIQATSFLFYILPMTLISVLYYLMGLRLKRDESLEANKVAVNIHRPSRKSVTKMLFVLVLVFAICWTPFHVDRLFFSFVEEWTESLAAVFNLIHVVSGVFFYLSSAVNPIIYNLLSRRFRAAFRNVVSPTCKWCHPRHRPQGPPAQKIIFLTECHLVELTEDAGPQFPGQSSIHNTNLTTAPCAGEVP", "assay": "125I-hNMU-25 displacement, cell membranes"}, "mouse NMUR1-CTG [5]": {"target": "T5, mouse NMUR1-CTG (mouse, UniProt O55040 1-428)", "T5 sequence (looked up)": "T2 sequence (looked up)", "assay": "125I-hNMU-25 displacement, cell membranes"}, "rat NMUR1-ATG [6]": {"target": "T6, rat NMUR1-ATG (rat, UniProt Q9JJI5 1-425)", "T6 sequence (looked up)": "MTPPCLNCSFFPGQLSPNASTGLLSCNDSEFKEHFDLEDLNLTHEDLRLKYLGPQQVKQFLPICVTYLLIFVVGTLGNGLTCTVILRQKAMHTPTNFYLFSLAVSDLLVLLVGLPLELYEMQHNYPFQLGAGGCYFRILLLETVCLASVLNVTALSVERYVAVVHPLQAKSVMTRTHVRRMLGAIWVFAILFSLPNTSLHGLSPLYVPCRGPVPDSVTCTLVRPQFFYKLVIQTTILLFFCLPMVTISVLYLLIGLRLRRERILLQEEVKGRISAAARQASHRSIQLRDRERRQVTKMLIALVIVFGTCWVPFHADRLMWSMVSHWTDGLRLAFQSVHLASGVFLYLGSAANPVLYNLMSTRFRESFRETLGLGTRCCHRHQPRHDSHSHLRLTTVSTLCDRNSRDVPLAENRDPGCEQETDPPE", "assay": "125I-hNMU-25 displacement, cell membranes"}, "rat NMUR1-TTG [7]": {"target": "T7, rat NMUR1-TTG (rat, UniProt Q9JJI5 1-425)", "T7 sequence (looked up)": "T6 sequence (looked up)", "assay": "125I-hNMU-25 displacement, cell membranes"}, "human NMUR2 [8]": {"target": "T8, human NMUR2 (human, UniProt Q9GZQ4 1-415)", "T8 sequence (Q9GZQ4 whole entry)": "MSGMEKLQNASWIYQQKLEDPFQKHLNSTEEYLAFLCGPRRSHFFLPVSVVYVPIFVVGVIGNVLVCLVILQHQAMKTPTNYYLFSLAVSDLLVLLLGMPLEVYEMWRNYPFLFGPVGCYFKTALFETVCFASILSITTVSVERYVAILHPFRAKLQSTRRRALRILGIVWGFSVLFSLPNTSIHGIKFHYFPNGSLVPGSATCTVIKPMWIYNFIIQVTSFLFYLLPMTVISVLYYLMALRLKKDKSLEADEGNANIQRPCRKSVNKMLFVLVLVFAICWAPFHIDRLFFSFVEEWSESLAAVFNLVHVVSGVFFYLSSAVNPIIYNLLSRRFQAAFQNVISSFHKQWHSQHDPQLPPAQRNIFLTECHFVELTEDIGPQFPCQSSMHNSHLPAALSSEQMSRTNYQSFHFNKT", "assay": "125I-hNMU-25 displacement, cell membranes"}, "human NMUR1 [9]": {"target": "T1, human NMUR1", "assay": "cell-based or functional assay"}, "mouse NMUR1-ATG [10]": {"target": "T2, mouse NMUR1-ATG", "assay": "cell-based or functional assay"}, "mouse NMUR2 [11]": {"target": "T3, mouse NMUR2", "assay": "cell-based or functional assay"}, "rat NMUR2 [12]": {"target": "T4, rat NMUR2", "assay": "cell-based or functional assay"}, "mouse NMUR1-CTG [13]": {"target": "T5, mouse NMUR1-CTG", "assay": "cell-based or functional assay"}, "rat NMUR1-ATG [14]": {"target": "T6, rat NMUR1-ATG", "assay": "cell-based or functional assay"}, "rat NMUR1-TTG [15]": {"target": "T7, rat NMUR1-TTG", "assay": "cell-based or functional assay"}, "human NMUR2 [16]": {"target": "T8, human NMUR2", "assay": "cell-based or functional assay"}, "human NMUR1 [17]": {"target": "T1, human NMUR1", "assay": "cell-based or functional assay", "remark": "listed apart in the source"}, "human NMUR2 [18]": {"target": "T8, human NMUR2", "assay": "cell-based or functional assay", "remark": "listed apart in the source"}, "human NMUR1 [19]": {"target": "T1, human NMUR1", "assay": "125I-hNMU-25 displacement, HEK cell membranes", "summary_of_the_method": "(§1)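 HEK cell membranes (2-5 μg) incubated with […] ¹²⁵I-hNMU-25 and peptides for 80 min at room temperature in TrisCl pH 7.4 buffer with MgCl₂, EDTA, bacitracin and phosphoramidon. Bound ligand collected by filtration and scintillation counting; nonspecific binding with 1 μM hNMU-25. IC₅₀ from curve fitting.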"}, "human NMUR2 [20]": {"target": "T8, human NMUR2", "assay": "125I-hNMU-25 displacement, HEK cell membranes", "summary_of_the_method": "as §1"}}, "note": "Like-named read-outs stand apart in the source and are kept apart here. Non-standard residues stand in square brackets, D forms with d. No end group written: not given here.", "data": [{"binder": "FRVDEEFQSPFASQSRGYF[dL]WRPRN-NH2 (not fully specified)", "note": "[neuromedin U receptor agonist H]", "values": [{"measurement": "% inhibition of NMU-25 binding", "setting": "human NMUR1 [1]", "value": 93, "unit": "%"}, {"measurement": "IC50", "setting": "human NMUR1 [1]", "value": 1.1, "unit": "nM"}, {"measurement": "% inhibition of NMU-25 binding", "setting": "mouse NMUR1-ATG [2]", "value": 77, "unit": "%"}, {"measurement": "IC50", "setting": "mouse NMUR1-ATG [2]", "value": 66, "unit": "nM"}, {"measurement": "% inhibition of NMU-25 binding", "setting": "mouse NMUR2 [3]", "value": 20, "unit": "%"}, {"measurement": "% inhibition of NMU-25 binding", "setting": "rat NMUR2 [4]", "value": 0, "unit": "%"}, {"measurement": "% inhibition of NMU-25 binding", "setting": "mouse NMUR1-CTG [5]", "value": 83, "unit": "%"}, {"measurement": "IC50", "setting": "mouse NMUR1-CTG [5]", "value": 25, "unit": "nM"}, {"measurement": "% inhibition of NMU-25 binding", "setting": "rat NMUR1-ATG [6]", "value": 100, "unit": "%"}, {"measurement": "IC50", "setting": "rat NMUR1-ATG [6]", "value": 15.9, "unit": "nM"}, {"measurement": "% inhibition of NMU-25 binding", "setting": "rat NMUR1-TTG [7]", "value": 100, "unit": "%"}, {"measurement": "IC50", "setting": "rat NMUR1-TTG [7]", "value": 11, "unit": "nM"}, {"measurement": "% inhibition of NMU-25 binding", "setting": "human NMUR2 [8]", "value": 7, "unit": "%"}, {"measurement": "IC50", "setting": "human NMUR2 [8]", "value": 782, "unit": "nM"}, {"measurement": "% activity", "setting": "human NMUR1 [9]", "value": 90, "unit": "%"}, {"measurement": "IC50 (nM), functional", "setting": "human NMUR1 [9]", "value": 1.25, "unit": "nM"}, {"measurement": "% activity", "setting": "mouse NMUR1-ATG [10]", "value": 90, "unit": "%"}, {"measurement": "IC50 (nM), functional", "setting": "mouse NMUR1-ATG [10]", "value": 25, "unit": "nM"}, {"measurement": "% activity", "setting": "mouse NMUR2 [11]", "value": 40, "unit": "%"}, {"measurement": "IC50 (nM), functional", "setting": "mouse NMUR2 [11]", "value": "> 1000", "unit": "nM"}, {"measurement": "% activity", "setting": "rat NMUR2 [12]", "value": 42, "unit": "%"}, {"measurement": "IC50 (nM), functional", "setting": "rat NMUR2 [12]", "value": "> 1000", "unit": "nM"}, {"measurement": "% activity", "setting": "mouse NMUR1-CTG [13]", "value": 77, "unit": "%"}, {"measurement": "IC50 (nM), functional", "setting": "mouse NMUR1-CTG [13]", "value": 66, "unit": "nM"}, {"measurement": "% activity", "setting": "rat NMUR1-ATG [14]", "value": 95, "unit": "%"}, {"measurement": "IC50 (nM), functional", "setting": "rat NMUR1-ATG [14]", "value": 31.1, "unit": "nM"}, {"measurement": "% activity", "setting": "rat NMUR1-TTG [15]", "value": 91, "unit": "%"}, {"measurement": "IC50 (nM), functional", "setting": "rat NMUR1-TTG [15]", "value": 153, "unit": "nM"}, {"measurement": "% activity", "setting": "human NMUR2 [16]", "value": 0, "unit": "%"}, {"measurement": "IC50 (nM), functional", "setting": "human NMUR2 [16]", "value": "> 1000", "unit": "nM"}, {"measurement": "% activity", "setting": "human NMUR1 [17]", "value": 88, "unit": "%"}, {"measurement": "IC50 (nM), functional", "setting": "human NMUR1 [17]", "value": 19, "unit": "nM"}, {"measurement": "IC50 (nM), functional", "setting": "human NMUR2 [18]", "value": "> 1000", "unit": "nM"}, {"measurement": "% activity (binding)", "setting": "human NMUR1 [19]", "value": 93, "unit": "%"}, {"measurement": "IC50", "setting": "human NMUR1 [19]", "value": 1.1, "unit": "nM"}, {"measurement": "% activity (binding)", "setting": "human NMUR2 [20]", "value": 7, "unit": "%"}, {"measurement": "IC50", "setting": "human NMUR2 [20]", "value": 780, "unit": "nM"}]}]}
